Data published in patent US20240409645A1 (DUALYX, published 2024).

T1: human IL-2 receptor (IL-2Rα/IL-2Rβ/γc) (human, UniProt P01589 22-272; P14784 27-551; P31785 23-369)
T1 sequence 1: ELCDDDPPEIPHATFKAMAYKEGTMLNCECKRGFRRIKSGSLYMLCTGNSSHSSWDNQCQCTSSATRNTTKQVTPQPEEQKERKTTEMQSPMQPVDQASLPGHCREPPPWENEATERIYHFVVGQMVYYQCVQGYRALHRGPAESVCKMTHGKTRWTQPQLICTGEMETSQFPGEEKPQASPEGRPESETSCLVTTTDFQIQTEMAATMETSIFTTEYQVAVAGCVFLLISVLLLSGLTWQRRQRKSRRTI
T1 sequence 2: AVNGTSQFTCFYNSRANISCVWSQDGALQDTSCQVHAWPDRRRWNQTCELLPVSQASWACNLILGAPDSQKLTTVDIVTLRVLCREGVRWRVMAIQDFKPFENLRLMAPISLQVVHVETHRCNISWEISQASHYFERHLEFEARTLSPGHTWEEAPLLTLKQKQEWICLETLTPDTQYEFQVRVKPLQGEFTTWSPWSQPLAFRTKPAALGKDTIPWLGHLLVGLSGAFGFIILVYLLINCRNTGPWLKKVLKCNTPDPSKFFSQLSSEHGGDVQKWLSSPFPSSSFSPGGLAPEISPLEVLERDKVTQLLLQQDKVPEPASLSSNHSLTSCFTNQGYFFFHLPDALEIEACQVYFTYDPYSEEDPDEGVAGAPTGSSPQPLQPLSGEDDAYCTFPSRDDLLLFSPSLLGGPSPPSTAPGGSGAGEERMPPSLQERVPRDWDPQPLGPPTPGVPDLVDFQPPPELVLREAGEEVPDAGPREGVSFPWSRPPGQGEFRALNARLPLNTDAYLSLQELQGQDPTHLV
T1 sequence 3: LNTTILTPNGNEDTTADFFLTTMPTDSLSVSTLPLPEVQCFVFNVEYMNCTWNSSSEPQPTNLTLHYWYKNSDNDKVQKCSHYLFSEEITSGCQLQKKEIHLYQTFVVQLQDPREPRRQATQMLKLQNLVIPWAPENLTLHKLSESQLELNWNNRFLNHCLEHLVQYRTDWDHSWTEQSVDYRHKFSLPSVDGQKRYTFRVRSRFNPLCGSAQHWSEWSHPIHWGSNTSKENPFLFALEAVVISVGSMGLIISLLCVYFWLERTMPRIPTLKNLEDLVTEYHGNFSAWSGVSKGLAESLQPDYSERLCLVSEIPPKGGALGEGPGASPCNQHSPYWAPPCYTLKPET

B1: DC00039 (other)
chain 1: QVQLVESGGGLVQPGGSLRLSCATSGFTFRNNFMSWVRQAPGKGLEWVSTISYGGESTTYAESVKGRFTISRDNAKNTLYLQMNNLKPEDTAVYYCAKATSYDSIRSGSRGQGTQVTVSSDKTHTCPPCPAPEAAGGPSVFLFPPKPKDTLMISRTPEVTCVVVDVSHEDPEVKFNWYVDGVEVHNAKTKPREEQYNSTYRVVSVLTVLHQDWLNGKEYKCKVSNKALGAPIEKTISKAKGQPREPQVYTLPPSRDELTKNQVSLTCLVKGFYPSDIAVEWESNGQPENNYKTTPPVLDSDGSFLLYSKLTVDKSRWQQGNVFSCSVMHEALHNHYTQKSLSLSPGK
chain 2: EVQLVESGGGLVQTGGSLRLSCAASGGTFSRDAMAWFRQVPGKEREFVALISWSGATTNYADSVKGRFAISRDNGKNTVYLQMNRLKPADTAIYYCAADRRPMGSRSYFEPTEYDDWGQGTQVTVSSGGGGSGGGGSGGGGSQVQLVESGGGLVQPGGSLRLSCATSGFTFRNNFMSWVRQAPGKGLEWVSTISYGGESTTYAESVKGRFTISRDNAKNTLYLQMNNLKPEDTAVYYCAKATSYDSIRSGSRGQGTQVTVSSGGGGSGGGGSGGGGSQVQLVESGGGLVQAGGSLTLSCAAPGRTFGTDVVGWFRQAPGKEREFVASISRSGDGIYYDDSVKGRFTISRNNAWNTVNLQMNSLKVEDTAVYYCAAGDGWSTYDYWGQGTQVTVSSGGGGSGGGGSGGGGSDKTHTCPPCPAPEAAGGPSVFLFPPKPKDTLMISRTPEVTCVVVDVSHEDPEVKFNWYVDGVEVHNAKTKPREEQYNSTYRVVSVLTVLHQDWLNGKEYKCKVSNKALGAPIEKTISKAKGQPREPQVYTLPPSRDELTKNQVSLTCLVKGFYPSDIAVEWESNGQPENNYKTTPPVLDSDGSFFLYSRLTVDKSRWQQGNVFSCSVMHEALHNHYTQKSLSLSPGK
B2: DC00042 (other)
chain 1: B1 chain 1
chain 2: QVQLVESGGGLVQAGGSLTLSCAAPGRTFGTDVVGWFRQAPGKEREFVASISRSGDGIYYDDSVKGRFTISRNNAWNTVNLQMNSLKVEDTAVYYCAAGDGWSTYDYWGQGTQVTVSSGGGGSGGGGSGGGGSEVQLVESGGGLVQTGGSLRLSCAASGGTFSRDAMAWFRQVPGKEREFVALISWSGATTNYADSVKGRFAISRDNGKNTVYLQMNRLKPADTAIYYCAADRRPMGSRSYFEPTEYDDWGQGTQVTVSSGGGGSGGGGSGGGGSDKTHTCPPCPAPEAAGGPSVFLFPPKPKDTLMISRTPEVTCVVVDVSHEDPEVKFNWYVDGVEVHNAKTKPREEQYNSTYRVVSVLTVLHQDWLNGKEYKCKVSNKALGAPIEKTISKAKGQPREPQVYTLPPSRDELTKNQVSLTCLVKGFYPSDIAVEWESNGQPENNYKTTPPVLDSDGSFFLYSRLTVDKSRWQQGNVFSCSVMHEALHNHYTQKSLSLSPGK
B3: DC00043 (other)
chain 1: B1 chain 1
chain 2: QVQLVESGGGLVQPGGSLRLSCATSGFTFRNNFMSWVRQAPGKGLEWVSTISYGGESTTYAESVKGRFTISRDNAKNTLYLQMNNLKPEDTAVYYCAKATSYDSIRSGSRGQGTQVTVSSGGGGSGGGGSGGGGSEVQLVESGGGLVQTGGSLRLSCAASGGTFSRDAMAWFRQVPGKEREFVALISWSGATTNYADSVKGRFAISRDNGKNTVYLQMNRLKPADTAIYYCAADRRPMGSRSYFEPTEYDDWGQGTQVTVSSGGGGSGGGGSGGGGSQVQLVESGGGLVQAGGSLTLSCAAPGRTFGTDVVGWFRQAPGKEREFVASISRSGDGIYYDDSVKGRFTISRNNAWNTVNLQMNSLKVEDTAVYYCAAGDGWSTYDYWGQGTQVTVSSGGGGSGGGGSGGGGSDKTHTCPPCPAPEAAGGPSVFLFPPKPKDTLMISRTPEVTCVVVDVSHEDPEVKFNWYVDGVEVHNAKTKPREEQYNSTYRVVSVLTVLHQDWLNGKEYKCKVSNKALGAPIEKTISKAKGQPREPQVYTLPPSRDELTKNQVSLTCLVKGFYPSDIAVEWESNGQPENNYKTTPPVLDSDGSFFLYSRLTVDKSRWQQGNVFSCSVMHEALHNHYTQKSLSLSPGK
B4: DC00041 (other)
chain 1: B1 chain 1
chain 2: QVQLVESGGGLVQPGGSLRLSCATSGFTFRNNFMSWVRQAPGKGLEWVSTISYGGESTTYAESVKGRFTISRDNAKNTLYLQMNNLKPEDTAVYYCAKATSYDSIRSGSRGQGTQVTVSSGGGGSGGGGSGGGGSQVQLVESGGGLVQAGGSLTLSCAAPGRTFGTDVVGWFRQAPGKEREFVASISRSGDGIYYDDSVKGRFTISRNNAWNTVNLQMNSLKVEDTAVYYCAAGDGWSTYDYWGQGTQVTVSSGGGGSGGGGSGGGGSEVQLVESGGGLVQTGGSLRLSCAASGGTFSRDAMAWFRQVPGKEREFVALISWSGATTNYADSVKGRFAISRDNGKNTVYLQMNRLKPADTAIYYCAADRRPMGSRSYFEPTEYDDWGQGTQVTVSSGGGGSGGGGSGGGGSDKTHTCPPCPAPEAAGGPSVFLFPPKPKDTLMISRTPEVTCVVVDVSHEDPEVKFNWYVDGVEVHNAKTKPREEQYNSTYRVVSVLTVLHQDWLNGKEYKCKVSNKALGAPIEKTISKAKGQPREPQVYTLPPSRDELTKNQVSLTCLVKGFYPSDIAVEWESNGQPENNYKTTPPVLDSDGSFFLYSRLTVDKSRWQQGNVFSCSVMHEALHNHYTQKSLSLSPGK
B5: DC00040 (other)
chain 1: B1 chain 1
chain 2: EVQLVESGGGLVQTGGSLRLSCAASGGTFSRDAMAWFRQVPGKEREFVALISWSGATTNYADSVKGRFAISRDNGKNTVYLQMNRLKPADTAIYYCAADRRPMGSRSYFEPTEYDDWGQGTQVTVSSGGGGSGGGGSGGGGSQVQLVESGGGLVQAGGSLTLSCAAPGRTFGTDVVGWFRQAPGKEREFVASISRSGDGIYYDDSVKGRFTISRNNAWNTVNLQMNSLKVEDTAVYYCAAGDGWSTYDYWGQGTQVTVSSGGGGSGGGGSGGGGSDKTHTCPPCPAPEAAGGPSVFLFPPKPKDTLMISRTPEVTCVVVDVSHEDPEVKFNWYVDGVEVHNAKTKPREEQYNSTYRVVSVLTVLHQDWLNGKEYKCKVSNKALGAPIEKTISKAKGQPREPQVYTLPPSRDELTKNQVSLTCLVKGFYPSDIAVEWESNGQPENNYKTTPPVLDSDGSFFLYSRLTVDKSRWQQGNVFSCSVMHEALHNHYTQKSLSLSPGK

target: T1, human IL-2 receptor (IL-2Rα/IL-2Rβ/γc); experiment: cell-based or functional assay

For B1, which “EC50 (nM) pSTAT5, NK, human PBMCs” value is on record?
Its value is 0.0315 nM.

What about the “EC50 (nM) pSTAT5, Treg, human PBMCs” value of the same binder?
Its value is 0.761 pM.

And the “Fold Max signal (% pSTAT5+) Treg/NK” value?
Its value is 11 fold.

What about the “Max signal (% pSTAT5+), NK” value of the same binder?
The value was 4 % pSTAT5+.

And the “Max signal (% pSTAT5+), Treg” value?
Its value is 46 % pSTAT5+.

And the “fold EC50 NK/Treg” value?
Its value is 41 fold.

How did the “EC50 (nM) pSTAT5, NK, human PBMCs” value turn out when B2 was run?
The value was 0.763 nM.

What about the “EC50 (nM) pSTAT5, Treg, human PBMCs” value of the same binder?
Its value is 0.106 pM.

What about the “Fold Max signal (% pSTAT5+) Treg/NK” value of the same binder?
Its value is 5 fold.

What about the “Max signal (% pSTAT5+), NK” value of the same binder?
The value was 21 % pSTAT5+.

What about the “Max signal (% pSTAT5+), Treg” value of the same binder?
Its value is 94 % pSTAT5+.

What about the “fold EC50 NK/Treg” value of the same binder?
Its value is 7210 fold.

For B3, which “EC50 (nM) pSTAT5, NK, human PBMCs” value is on record?
Its value is 0.0425 nM.

And the “EC50 (nM) pSTAT5, Treg, human PBMCs” value?
Its value is 0.529 pM.

What about the “Fold Max signal (% pSTAT5+) Treg/NK” value of the same binder?
The value was 16 fold.

What about the “Max signal (% pSTAT5+), NK” value of the same binder?
Its value is 3 % pSTAT5+.

What about the “Max signal (% pSTAT5+), Treg” value of the same binder?
Its value is 54 % pSTAT5+.

And the “fold EC50 NK/Treg” value?
Its value is 80 fold.

For B4, which “EC50 (nM) pSTAT5, NK, human PBMCs” value is on record?
Its value is 0.15 nM.

And the “EC50 (nM) pSTAT5, Treg, human PBMCs” value?
The value was < 0.1 pM.

What about the “Fold Max signal (% pSTAT5+) Treg/NK” value of the same binder?
The value was 5 fold.

And the “Max signal (% pSTAT5+), NK” value?
Its value is 17 % pSTAT5+.

What about the “Max signal (% pSTAT5+), Treg” value of the same binder?
Its value is 94 % pSTAT5+.

And the “fold EC50 NK/Treg” value?
Its value is > 1500 fold.

B5 was tested. Which “EC50 (nM) pSTAT5, NK, human PBMCs” value did it give?
The value was 0.701 nM.

And the “EC50 (nM) pSTAT5, Treg, human PBMCs” value?
The value was 0.0158 nM.

What about the “Fold Max signal (% pSTAT5+) Treg/NK” value of the same binder?
Its value is 10 fold.

What about the “Max signal (% pSTAT5+), NK” value of the same binder?
The value was 4 % pSTAT5+.

And the “Max signal (% pSTAT5+), Treg” value?
Its value is 43 % pSTAT5+.

And the “fold EC50 NK/Treg” value?
The value was 44 fold.
